Values quoted from earlier work as cited in US6645518B2, “Uses for medical devices having a lubricious, nitric oxide-releasing coating” (priority 1998, dated 2003).

System: clinical restenosis
Conditions: after balloon angioplasty, systemic administration, six month follow-up

B1: c7E3: potent anti-platelet agent, GPIIb/IIIa antibody, FDA-approved for use after balloon angioplasty (antibody, chains of the INN, looked up, V domains shown)
VH: EVQLQQSGTVLARPGASVKMSCEASGYTFTNYWMHWVKQRPGQGLEWIGAIYPGNSDTSYIQKFKGKAKLTAVTSTTSVYMELSSLTNEDSAVYYCTLYDGYYVFAYWGQGTLVTVSA
VL: EIVLTQSPVTLSVTPGDSVSLSCRASRDISNNLHWFQQTSHESPRLLIKYASQSMSGIPSRFSGSGSGTDFTLSINSVETEDFGMYFCQQTNSWPYTFGGGTKLEIK
reduction of clinical restenosis: 20-30%
